US20230374116A1 (ROSALIND FRANKLIN INSTITUTE, published 2023)

Target: SARS-CoV-2 receptor-binding domain (amino acids 330-532), prototypical Wuhan/Victoria (SARS-CoV-2 (Wuhan/Victoria), UniProt P0DTC2 330-532)
Assay: X-ray crystallography

B1: A8 (VHH)
VHH: QVQLVESGGGLVQAGGSLRLSCAASGGTFSTAAMGWFRQAPGEERECVASIGWRGVRTWYADSVKGRFTISRDNPQNTVYLQMNNLKSGDTAVYYCAASVGNYGLPWAHFEYDFWGQGIQVTVSS
notes: also called 2_A8
binding result: binds
